We go through 91 sequences from the supplement of paper PMC9112550, “Optimization of the antimicrobial peptide Bac7 by deep mutational scanning” (BMC Biology, 2022).

The test system of the series is Escherichia coli TOP10. Description: shrunken log2 fold change of peptide-encoding DNA abundance (4.5 h post-induction vs induction); higher = less antimicrobial activity (less host growth inhibition). The note with it: time post-induction: 4.5 h; library: site-saturation at positions 5, 18, 19, 20.
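Note: peptides expressed intracellularly from a pBAD plasmid library in pooled LB shake-flask culture, induced with 0.3% L-arabinose, DNA abundance read by NGS, three biological replicates, DESeq2 with apeglm shrinkage.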

With RRIRTRPPRLPRPRPRPGPKPRP, the “shrunken log2 fold change” value stood at 0.152.
Under RRIRCRPPRLPRPRPRPCYHPRP stands -0.79; under RRIRMRPPRLPRPRPRPPILPRP, 0.0619; under RRIRSRPPRLPRPRPRPMYMPRP, -0.387.
Take RRIRERPPRLPRPRPRPNIYPRP: the “shrunken log2 fold change” value is -0.538.
The value for RRIRHRPPRLPRPRPRPDVYPRP was 0.0592.
Under RRIRIRPPRLPRPRPRPVCTPRP stands -0.159; under RRIRMRPPRLPRPRPRPWRYPRP, 0.166.
Under RRIRIRPPRLPRPRPRPTLGPRP stands -0.139; under RRIRVRPPRLPRPRPRPVEAPRP, 0.0669.
In the case of RRIRRRPPRLPRPRPRPWNKPRP, the “shrunken log2 fold change” value came out at 0.0897.
On to RRIRFRPPRLPRPRPRPNMNPRP, for which the “shrunken log2 fold change” value is -0.953.
On to RRIRHRPPRLPRPRPRPLIQPRP, for which the “shrunken log2 fold change” value was -0.0847.
RRIRKRPPRLPRPRPRPACWPRP: the “shrunken log2 fold change” value stood at 0.96.
Regarding RRIRKRPPRLPRPRPRPYCNPRP, the “shrunken log2 fold change” value came out at 0.068.
Under RRIRTRPPRLPRPRPRPWMGPRP stands -0.116; under RRIRCRPPRLPRPRPRPYKTPRP, -0.404.
With RRIRWRPPRLPRPRPRPRAQPRP, the “shrunken log2 fold change” value came to 0.56.
The value for RRIRWRPPRLPRPRPRPFFDPRP was 0.0993; that for RRIRDRPPRLPRPRPRPCMLPRP was 1.36; that for RRIRHRPPRLPRPRPRPDYHPRP was -0.336.
Under RRIRHRPPRLPRPRPRPYKHPRP stands -0.512.
The value for RRIRYRPPRLPRPRPRPPTCPRP was -0.163; that for RRIRARPPRLPRPRPRPENYPRP was 0.0453; that for RRIRLRPPRLPRPRPRPWRKPRP was 0.125.
With RRIRKRPPRLPRPRPRPLKMPRP, the “shrunken log2 fold change” value came to 0.0436.
Turning to RRIRTRPPRLPRPRPRPREGPRP, the “shrunken log2 fold change” value was 0.41.
As for RRIRMRPPRLPRPRPRPPNGPRP, the “shrunken log2 fold change” value was determined as 0.234.
As to RRIRERPPRLPRPRPRPINIPRP, the “shrunken log2 fold change” value is -0.973.
Under RRIRWRPPRLPRPRPRPARFPRP stands 0.461; under RRIRVRPPRLPRPRPRPGQRPRP, 0.0272.
In the case of RRIRRRPPRLPRPRPRPSISPRP, the “shrunken log2 fold change” value is -0.774.
The value for RRIRDRPPRLPRPRPRPLFVPRP was -0.168.
Take RRIRTRPPRLPRPRPRPYCCPRP: the “shrunken log2 fold change” value is -0.364.
As for RRIRTRPPRLPRPRPRPYWWPRP, the “shrunken log2 fold change” value was -0.554.
Under RRIRIRPPRLPRPRPRPEMTPRP stands 0.104.
Under RRIRFRPPRLPRPRPRPKYRPRP stands 0.225; under RRIRLRPPRLPRPRPRPPCGPRP, 0.191.
Take RRIRYRPPRLPRPRPRPDMMPRP: the “shrunken log2 fold change” value was -0.417.
The value for RRIRWRPPRLPRPRPRPYEEPRP was -0.334.
Under RRIRPRPPRLPRPRPRPECPPRP stands 0.353.
Under RRIRERPPRLPRPRPRPIHKPRP stands -0.424.
RRIRKRPPRLPRPRPRPWYPPRP: the “shrunken log2 fold change” value is 0.00168.
The value for RRIRIRPPRLPRPRPRPPDMPRP was -0.16; that for RRIRERPPRLPRPRPRPIKYPRP was -0.351.
Consider RRIRQRPPRLPRPRPRPVWEPRP, for which the “shrunken log2 fold change” value was 0.0571.
As for RRIRNRPPRLPRPRPRPKKMPRP, the “shrunken log2 fold change” value was -0.233.
Under RRIRCRPPRLPRPRPRPDMRPRP stands 0.018; under RRIRKRPPRLPRPRPRPDSPPRP, -0.0585; under RRIRYRPPRLPRPRPRPMREPRP, 0.529.
The value for RRIRWRPPRLPRPRPRPDYRPRP was -0.0424; that for RRIRHRPPRLPRPRPRPSVCPRP was -0.294; that for RRIRKRPPRLPRPRPRPSQLPRP was 0.141.
On to RRIRPRPPRLPRPRPRPWEEPRP, for which the “shrunken log2 fold change” value amounted to 0.148.
On to RRIRSRPPRLPRPRPRPLWLPRP, for which the “shrunken log2 fold change” value is -0.0472.
In the case of RRIRYRPPRLPRPRPRPSLWPRP, the “shrunken log2 fold change” value was -0.0532.
As for RRIRSRPPRLPRPRPRPPRPPRP, the “shrunken log2 fold change” value is 0.684.
Take RRIRFRPPRLPRPRPRPHESPRP: the “shrunken log2 fold change” value was -0.0515.
Under RRIRCRPPRLPRPRPRPLTPPRP stands 0.292.
For the sequence RRIRPRPPRLPRPRPRPHLHPRP, the “shrunken log2 fold change” value was -0.0768.
RRIRWRPPRLPRPRPRPYKKPRP: the “shrunken log2 fold change” value was -0.225.
Turning to RRIRNRPPRLPRPRPRPECHPRP, the “shrunken log2 fold change” value is -0.0505.
Under RRIRARPPRLPRPRPRPGKDPRP stands 0.36; under RRIRQRPPRLPRPRPRPFVAPRP, 0.0106; under RRIRQRPPRLPRPRPRPHNHPRP, -0.811.
With RRIRLRPPRLPRPRPRPARAPRP, the “shrunken log2 fold change” value turned out to be 0.268.
The value for RRIRGRPPRLPRPRPRPFGLPRP was -0.0119.
The value for RRIRSRPPRLPRPRPRPHRHPRP was -0.0713.
Turning to RRIRMRPPRLPRPRPRPWFWPRP, the “shrunken log2 fold change” value stood at 0.221.
The value for RRIRLRPPRLPRPRPRPKSTPRP was -0.222.
The value for RRIRTRPPRLPRPRPRPAVSPRP was 0.00645.
As for RRIRSRPPRLPRPRPRPSNIPRP, the “shrunken log2 fold change” value is -0.484.
The value for RRIRTRPPRLPRPRPRPCLEPRP was -0.279; that for RRIRNRPPRLPRPRPRPLEVPRP was -0.118.
The value for RRIRYRPPRLPRPRPRPWVIPRP was -0.0317; that for RRIRPRPPRLPRPRPRPTAPPRP was 0.528; that for RRIRHRPPRLPRPRPRPDVRPRP was -0.00783.
The value for RRIRMRPPRLPRPRPRPHPNPRP was 0.299.
With RRIRVRPPRLPRPRPRPNNDPRP, the “shrunken log2 fold change” value was -0.335.
The value for RRIRTRPPRLPRPRPRPFIPPRP was -0.312.
The value for RRIRTRPPRLPRPRPRPRHDPRP was 0.0144; that for RRIRYRPPRLPRPRPRPTFEPRP was -0.274.
On to RRIRTRPPRLPRPRPRPEHRPRP, for which the “shrunken log2 fold change” value is -0.0227.
The value for RRIRTRPPRLPRPRPRPSMLPRP was -0.204; that for RRIRPRPPRLPRPRPRPDGRPRP was 0.101; that for RRIRGRPPRLPRPRPRPMHSPRP was 0.668.
Under RRIRHRPPRLPRPRPRPPVMPRP stands -0.0747; under RRIRPRPPRLPRPRPRPVSAPRP, 0.249.
Under RRIRGRPPRLPRPRPRPSKDPRP stands 0.0908; under RRIRHRPPRLPRPRPRPHFPPRP, -0.324.
For the sequence RRIRDRPPRLPRPRPRPFHPPRP, the “shrunken log2 fold change” value is -0.106.
